Data published in publication doi:10.1101/2020.07.15.204800 (bioRxiv, 2020).

Biological target: T1, PQLC2-FLAG wild type (human, UniProt Q6ZP29 1-291)
T1 sequence: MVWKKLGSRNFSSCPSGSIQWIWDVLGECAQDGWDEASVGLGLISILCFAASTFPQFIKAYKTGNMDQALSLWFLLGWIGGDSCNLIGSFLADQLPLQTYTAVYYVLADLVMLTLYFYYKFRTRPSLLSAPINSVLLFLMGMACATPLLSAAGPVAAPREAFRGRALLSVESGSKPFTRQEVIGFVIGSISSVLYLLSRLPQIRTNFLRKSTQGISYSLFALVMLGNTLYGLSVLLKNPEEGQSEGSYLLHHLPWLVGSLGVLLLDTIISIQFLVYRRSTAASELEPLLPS
Assay: pull-down

binding result: binds
Binder: TGFFNMWGFG [GST-WDR41-PIP (GST fused to the 10 amino acid PIP sequence)]
